The values that follow come from the nanobody polyreactivity screen of Harvey et al. (2022).

This data set is described as follows: yeast display, Sf9 membrane polyspecificity reagent, FACS + sequencing; frameworks hold sequencing errors. The method, boiled down: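 A synthetic nanobody library was expressed on Saccharomyces cerevisiae BJ5465 by galactose induction for 36–48 hours. The library was stained for 1 hour at 4 °C with 10% biotinylated, detergent-solubilized Sf9 membrane reagent and enriched with streptavidin microbeads before FACS. Low and high (top ~1%) gates were set on anti-HA fluorescence for expression and streptavidin fluorescence for reagent binding, and each polyreactivity label reflects the gate of origin.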
In the case of “QVQLVESGGGLVQAGGSLRLSCAASGGTFGPYAMGWYSQAPGKERELVATIRSSGGRTYYADSVTGRFTISRDNAKNTVYFQMNSLKPEDTAVYYCAADNLRQFGEYDYWGQGTQVTVSS”, the “polyreactivity (PSR sort gate)” value is reported as “low polyreactivity”.

Take “QVQLVESGGGLVQAGGSLRLSCAASGGTFGRYTMGWYRQAPGKERELVATITIGGGTNYADSVKGRFTISRDNAKNTVYLQMNSLKPEDTAVYYCARAWRWRCRYYEYGYWGQGTQVTVSS”: the “polyreactivity (PSR sort gate)” value was “high polyreactivity”.

As to “QVQLVESGGGLVQAGGSLRLSCAASGGTFGSNAMGWYRPAPGKERELVAAISTTGGTTYYADSVKGRFTISRDNAKNTVYLQMNSLKPEDPAVYYCAKDGYVYGDWYTYAYDYWGQGTQVTVSS”, the “polyreactivity (PSR sort gate)” value is “low polyreactivity”.

Regarding “QVQLVESGGGLVQAGGSLRLSCAASGGTFGVNTMGWYSHAPGKERELVAAISNRGVSTYYADSVKGRFTISRDNAKNTVYLQMNSQKPEDTAVYYCASTNSYVYSITLDRYDYWGQGTQVTVSS”, the “polyreactivity (PSR sort gate)” value was “low polyreactivity”.

Take “QVQLVESGGGLVQAGGSLRLSCAASGGTFGVYYAMGRYRQAPGKERELVADISWSAGSTYYADSVKGRFTISRDNAKNTVYLQMNSLKPEDTAVYYCAARYAVYWPWYVREYDYWGQGTQVTVSS”: the “polyreactivity (PSR sort gate)” value is given as “low polyreactivity”.

Regarding “QVQLVESGGGLVQAGGSLRLSCAASGGTFGYNVMGWYRQAPGKERELVAAISYSVGGTYYADSVKGRFTISRDNAKNTVYLQMNSLKPEDTEVYYCAATGRRRTYSEYEYWGQGTQVTVSS”, the “polyreactivity (PSR sort gate)” value is given as “high polyreactivity”.

With “QVQLVESGGGLVQAGGSLRLSCAASGGTFHKYDMGWYRQAPGKERELVAYADSVKGRFTISRDNAKNTVYLQMNSLKPEDTAVYYCNADWQSYGYLCHSSLYYYWGQGTQVTVSS”, the “polyreactivity (PSR sort gate)” value is recorded as “low polyreactivity”.

Take “QVQLVESGGGLVQAGGSLRLSCAASGGTFHRNAMGWYRQAPGKERELVAAITSSGGSTNYADSVKGRFTISRDNAKYTVYLQMNSLKPEETAVYYCATDRYRYTSHPWSRGFDYLGQGTQVTVSS”: the “polyreactivity (PSR sort gate)” value is “low polyreactivity”.

In the case of “QVQLVESGGGLVQAGGSLRLSCAASGGTFHSNAMGWYRQAPGKERELVASINWSGGSTYYADSVKGRFTISRDNAKNTDYLQMNSLKPEDTAVYYCAARESYPGYGYDHWGQGTQVTVSS”, the “polyreactivity (PSR sort gate)” value was “low polyreactivity”.

On to “QVQLVESGGGLVQAGGSLRLSCAASGGTFHYNAMGWSRQAPGKERELVAAITESGGRTYYADSVKGRFTISRDNAKNTVYLQMNSLKPEDTAVYYCNADQDYDAAYRSDYWGQGTQVTVSS”, for which the “polyreactivity (PSR sort gate)” value is listed as “low polyreactivity”.

Consider “QVQLVESGGGLVQAGGSLRLSCAASGGTFKFYAMGWYRQAPGKERELVAAISWSGTSTYYADSVKGRFTISRDNAKNTVYLQMNSLKPEDTAVYYCAADKRLRGHGYDYWGQGTQVTVSS”, for which the “polyreactivity (PSR sort gate)” value is “high polyreactivity”.

Consider “QVQLVESGGGLVQAGGSLRLSCAASGGTFKLYAMGWYRQAPGKERELVAAISRRGGSTYYADSVKVRFTISRDNAKNTVYLQMNSLKPEDTAVYYCAAPGPTQSTQRGGYWGQGTQVTVSS”, for which the “polyreactivity (PSR sort gate)” value was “high polyreactivity”.

As to “QVQLVESGGGLVQAGGSLRLSCAASGGTFKRNAMGWYRQAPGKERELVAAISTSGATTYYADSVKGRFTISRDNAKNTVYLQMNSLKPEDTAVYYCNAVGDARYNYWGQGTQVTVSS”, the “polyreactivity (PSR sort gate)” value is “high polyreactivity”.

“QVQLVESGGGLVQAGGSLRLSCAASGGTFKSAYVMGWYRQAPGKERELVAAIDSTGSTNYADSVKGRFTISRDNAKNTVYLQMNSLKPEDTAVYYCNADRRELYYDPMDYWGQGTQVTVSS”: the “polyreactivity (PSR sort gate)” value is “low polyreactivity”.

As for “QVQLVESGGGLVQAGGSLRLSCAASGGTFLINAMGWYRQAPGKERELVATITSGGTTYYADSVKGRFTISRDNAKNTVYLQMNSLKPEDTAVYYCATRGKGRYGYDSWGQGTQVTVSS”, the “polyreactivity (PSR sort gate)” value was “low polyreactivity”.

On to “QVQLVESGGGLVQAGGSLRLSCAASGGTFPAYTMGWYRQAPGKERELVAAITWSGGNTYYADSVKGRFTISRDNAKNTVYLQMNSLKPQDTAVYYCAAEYWQYQWSVRIDYEYWGQGTQVTVSS”, for which the “polyreactivity (PSR sort gate)” value is “high polyreactivity”.

With “QVQLVESGGGLVQAGGSLRLSCAASGGTFPQNVMGWYRPAPGKERELVAAISSGGSTYYADSVKVRFTISRDNAKNTVYFQMNSLIPEDTGVYYCAKRRWYRYDYWGQGTQVTVSS”, the “polyreactivity (PSR sort gate)” value is listed as “high polyreactivity”.

Turning to “QVQLVESGGGLVQAGGSLRLSCAASGGTFPVYALGWYRQAPGKERELVAAISYSGVTTYYADSVKGRFTISRDNAKNTVYLQMNSLKPEDTAVYYCNADWRRWYIFSYDYWGQGTQVTVSS”, the “polyreactivity (PSR sort gate)” value is reported as “low polyreactivity”.

With “QVQLVESGGGLVQAGGSLRLSCAASGGTFPWYTMGWYRQAPGKERELVAAISVSGDSTHYADSVKGRFTISRDNAKNTVYLQMNSLKPEDTAVYYCAATYLVSSDKYDYWGQGTQVTVSS”, the “polyreactivity (PSR sort gate)” value was “high polyreactivity”.

As for “QVQLVESGGGLVQAGGSLRLSCAASGGTFPYNAMGWYRQAAGKERELVAAISSSGTSTYYADSVKRRFTISRDNAKNTVYLQMNSLKPEDTAVYYCNDYFKRYDYWGQGTQVTVSS”, the “polyreactivity (PSR sort gate)” value is listed as “high polyreactivity”.

Turning to “QVQLVESGGGLVQAGGSLRLSCAASGGTFPYNAMGWYRQAPGKERELVAAISSSGTSTYYADSVKGRFTISRDNAKNTVYLQMNSLKPEDTAVYYCNDYFKRYDYWGQGTQVTVSS”, the “polyreactivity (PSR sort gate)” value is given as “high polyreactivity”.

For “QVQLVESGGGLVQAGGSLRLSCAASGGTFPYYAMGWYRQAPGKERELVAAISSSGGRTYYADSVKGRFTISRDNAKNTVYLQMNSLKPEDTAVYYCAKDTYGFAANRPAGDGYWGQGTQVTVSS”, the “polyreactivity (PSR sort gate)” value was “high polyreactivity”.

“QVQLVESGGGLVQAGGSLRLSCAASGGTFPYYAMGWYRQAPGKERELVADISGTDGSTYYADSVKGRFTISRDNAKTTVYLQMNSLKPEDTAVYYCNADPHWWYWDYDYWGQGTQVTVSS”: the “polyreactivity (PSR sort gate)” value is reported as “high polyreactivity”.

On to “QVQLVESGGGLVQAGGSLRLSCAASGGTFQGNAMGWYRQAPGKEREFVATITRGGGSTYYADSVKGRFTISRDNAKNTVYLQMNSLKPEDTAVYYCNAKPSYYQRYNYWGQGTQVTVSS”, for which the “polyreactivity (PSR sort gate)” value is listed as “high polyreactivity”.

For “QVQLVESGGGLVQAGGSLRLSCAASGGTFQQNAMGWSRQAPGKERELVAAISWSDGSTYYADSVKGRFTISRDYATNTVYLQMNSLTPEDTAVYYCAADFTYYDSPYRDYNYESWGQGTQVTVSS”, the “polyreactivity (PSR sort gate)” value is recorded as “low polyreactivity”.

Regarding “QVQLVESGGGLVQAGGSLRLSCAASGGTFQSNGMGWYIQAPGKERELVATITGSGGDTSYAGSVKGRFTISRDNAKNTVYLQMNSLKPEDTAVYYCAAADADRKYDYWGQGTQVTVSS”, the “polyreactivity (PSR sort gate)” value is given as “low polyreactivity”.

With “QVQLVESGGGLVQAGGSLRLSCAASGGTFRLYAMGWYRQAPGKERELVAAISGRGGSTYYADSVKGRFTISRDNAKNTVYLQMNSLKPEDTAVYYCARYRRGKMDYWGQGTQVTVSS”, the “polyreactivity (PSR sort gate)” value is listed as “high polyreactivity”.

Regarding “QVQLVESGGGLVQAGGSLRLSCAASGGTFRLYTMGWYRQAPGKERELVAGISSSSGSTYYADSVKGRFTISRDNAKNTVYLQMNILKPEDTAVYYCAAYWPRSRYDYWGQGTQVTVSS”, the “polyreactivity (PSR sort gate)” value was “high polyreactivity”.

Consider “QVQLVESGGGLVQAGGSLRLSCAASGGTFRNYAMGWYRQAPGKERELVAAITTGTITNYADSVKGRFTISRDNAKNTVYLQMNSLKPEDTAVYYCNAGAFYSDPYDYWGQGTQLTVSS”, for which the “polyreactivity (PSR sort gate)” value is recorded as “low polyreactivity”.

As to “QVQLVESGGGLVQAGGSLRLSCAASGGTFRNYPMGWYRQAPGKERELVAAITTGTITNYADSVKGRFTISRDNAKNTVYLQMNSLKPEDTAVYYCNAGAFYSDPYDYWGQGTQVTVSS”, the “polyreactivity (PSR sort gate)” value was “low polyreactivity”.

Turning to “QVQLVESGGGLVQAGGSLRLSCAASGGTFRPYAIGWYRQAPGKERELVATIRSSGGRTYYADSVKGRFTISRDNAKNTVYLQMNSLKPEDTAVYYCAKRAQTYYGYVYWGQGTQVTVSS”, the “polyreactivity (PSR sort gate)” value is reported as “high polyreactivity”.

In the case of “QVQLVESGGGLVQAGGSLRLSCAASGGTFRRYTMGWYTQAPGKVRELVAAITTSGGSTYYADSVKGRFTISRDNAKNTVYLQMNSLKPEDTAVYYCAATRRYSGDYWGQGTQVTVSS”, the “polyreactivity (PSR sort gate)” value is “high polyreactivity”.

Turning to “QVQLVESGGGLVQAGGSLRLSCAASGGTFRVYAMGWYRQAPVKERELVDAITWRGGRTYYADSVKGRFTISRDNAKNTDYFQMNSLKPEDPAVYYCAADRYGDLYDYWGQGTQVTVSS”, the “polyreactivity (PSR sort gate)” value is “high polyreactivity”.

As for “QVQLVESGGGLVQAGGSLRLSCAASGGTFSFYTMGWYRQGPGKERELVAAIDSTGRTNYADSVKGRFTISRENAKNTVYLLMNSLKPDDTAVYYCSAGPPRADYDYWGQGTQVTVSS”, the “polyreactivity (PSR sort gate)” value is recorded as “low polyreactivity”.

Take “QVQLVESGGGLVQAGGSLRLSCAASGGTFSYYAMGWYRQAPGKERELVAAISGNGDTTYYADSVKGRFTSSRDNAKNTVYLQMNSLKPEATAVYYCNVFVSAGEEDEYWGQGTQVTVSS”: the “polyreactivity (PSR sort gate)” value is listed as “low polyreactivity”.

With “QVQLVESGGGLVQAGGSLRLSCAASGGTFTAYAMGWYIQAPGKERELVAAISASGDSTYYADSVKGRFTISRDIAKNTVYLQMNSLKPEDTAVYYCNADWYRTGRRGSDYWGQGTQVTVSS”, the “polyreactivity (PSR sort gate)” value is listed as “low polyreactivity”.

For the sequence “QVQLVESGGGLVQAGGSLRLSCAASGGTFTRYTMGWYRQAHGKESELVAAISSSGGSTYYADSVKGRFTISRDNAKNTVYLQMNSLKPEDTAVYYCAAFKASSKQYPYDYWGQGTQVTVSS”, the “polyreactivity (PSR sort gate)” value is “high polyreactivity”.

With “QVQLVESGGGLVQAGGSLRLSCAASGGTFTSYAMGWYRQAPGKERELVAAISWSGGSTYYADSVKGRFTISRDNAKNTVYLQMKSLKPEDTAVYYCAAVFYRYNAVRYDYWGQGTQVTVSS”, the “polyreactivity (PSR sort gate)” value is given as “high polyreactivity”.

Turning to “QVQLVESGGGLVQAGGSLRLSCAASGGTFTVNAMGLYRQAPGKERELVAAITWDGGTTYYADSVKGRFTISRDNAKNTVYLQMNSLKPEDSAVYYCAAEVDYSAFDYWGQGTQVTVSS”, the “polyreactivity (PSR sort gate)” value was “low polyreactivity”.

For “QVQLVESGGGLVQAGGSLRLSCAASGGTFVFYAMGWYIQAPGKERELVAAISSAGRTYYADAVKGRFTISRDNAKTTVYLQMNSLKPEETAVYYCAAVSSQYDGRYYYWGQGTQVTVSS”, the “polyreactivity (PSR sort gate)” value is reported as “high polyreactivity”.

Regarding “QVQLVESGGGLVQAGGSLRLSCAASGGTFVPNAMGWYRQAPGKERELVAAITWSGARTYYADSVKGRFTISRDNAKNTVYLQMNSLKPEDTAVYYCAAVYNYYIVYEYYYWGQGTQVTVSS”, the “polyreactivity (PSR sort gate)” value is “high polyreactivity”.
